Here are results for 36 variants from the RNAGym collection of RNA variant scans (doi:10.1021/acssynbio.7b00057).

The chains are these.
B1: Pistol ribozyme (parent)
chain: GGGUCGUUGUUCCAUAAUCGCGUGGAUAUGGCACGCAAGUUUCUACCGGGCACCGUAAAUGUCCGACUGGAGCCGUUCGGGCGGCUAUAAACAGACCUCAGGCCCGAAGCGUGGCGGCACCUGCCGCCGGUGGUAAAAAAGAUCGGAAGAGCACACGUCU

In this data set the parent is B1. Nature of the data set: aptazyme ON/OFF ratio, guanine; higher = stronger switching; co-transcriptional cleavage with and without guanine.
With GGGUCGGCAUGCUAUAAUCGCGUGGAUAUGGCACGCAAGUUUCUACCGGGCACCGUAAAUGUCCGACUGGAGCCGUUCGGGCGGCUAUAAACAGACCUCAGGCCCGAAGCGUGGCGGCACCUGCCGCCGGUGGUAAAAAAGAUCGGAAGAGCACACGUCU, the “aptazyme ON/OFF ratio” value was 1.19.
Next, GGGUCGGCAUGCGAUAAUCGCGUGGAUAUGGCACGCAAGUUUCUACCGGGCACCGUAAAUGUCCGACUGGAGCCGUUCGGGCGGCUAUAAACAGACCUCAGGCCCGAAGCGUGGCGGCACCUGCCGCCGGUGGUAAAAAAGAUCGGAAGAGCACACGUCU: 1.09; GGGUCGGCCUUCAAUAAUCGCGUGGAUAUGGCACGCAAGUUUCUACCGGGCACCGUAAAUGUCCGACUGGAGCCGUUCGGGCGGCUAUAAACAGACCUCAGGCCCGAAGCGUGGCGGCACCUGCCGCCGGUGGUAAAAAAGAUCGGAAGAGCACACGUCU: 1.11; GGGUCGGCCUUCGAUAAUCGCGUGGAUAUGGCACGCAAGUUUCUACCGGGCACCGUAAAUGUCCGACUGGAGCCGUUCGGGCGGCUAUAAACAGACCUCAGGCCCGAAGCGUGGCGGCACCUGCCGCCGGUGGUAAAAAAGAUCGGAAGAGCACACGUCU: 1.05.
Next, GGGUCGGCCUUCUAUAAUCGCGUGGAUAUGGCACGCAAGUUUCUACCGGGCACCGUAAAUGUCCGACUGGAGCCGUUCGGGCGGCUAUAAACAGACCUCAGGCCCGAAGCGUGGCGGCACCUGCCGCCGGUGGUAAAAAAGAUCGGAAGAGCACACGUCU: 1.15.
Next, GGGUCGGCCAUCUAUAAUCGCGUGGAUAUGGCACGCAAGUUUCUACCGGGCACCGUAAAUGUCCGACUGGAGCCGUUCGGGCGGCUAUAAACAGACCUCAGGCCCGAAGCGUGGCGGCACCUGCCGCCGGUGGUAAAAAAGAUCGGAAGAGCACACGUCU: 1.07.
Consider GGGUCGGCCAUCGAUAAUCGCGUGGAUAUGGCACGCAAGUUUCUACCGGGCACCGUAAAUGUCCGACUGGAGCCGUUCGGGCGGCUAUAAACAGACCUCAGGCCCGAAGCGUGGCGGCACCUGCCGCCGGUGGUAAAAAAGAUCGGAAGAGCACACGUCU, for which the “aptazyme ON/OFF ratio” value turned out to be 1.07.
In the case of GGGUCGGCCAUCAAUAAUCGCGUGGAUAUGGCACGCAAGUUUCUACCGGGCACCGUAAAUGUCCGACUGGAGCCGUUCGGGCGGCUAUAAACAGACCUCAGGCCCGAAGCGUGGCGGCACCUGCCGCCGGUGGUAAAAAAGAUCGGAAGAGCACACGUCU it was 1.08; in that of GGGUCGGCCUUGUAUAAUCGCGUGGAUAUGGCACGCAAGUUUCUACCGGGCACCGUAAAUGUCCGACUGGAGCCGUUCGGGCGGCUAUAAACAGACCUCAGGCCCGAAGCGUGGCGGCACCUGCCGCCGGUGGUAAAAAAGAUCGGAAGAGCACACGUCU, 1.09; in that of GGGUCGGCCUUGAAUAAUCGCGUGGAUAUGGCACGCAAGUUUCUACCGGGCACCGUAAAUGUCCGACUGGAGCCGUUCGGGCGGCUAUAAACAGACCUCAGGCCCGAAGCGUGGCGGCACCUGCCGCCGGUGGUAAAAAAGAUCGGAAGAGCACACGUCU, 1.13.
Next, GGGUCGGCCUUGGAUAAUCGCGUGGAUAUGGCACGCAAGUUUCUACCGGGCACCGUAAAUGUCCGACUGGAGCCGUUCGGGCGGCUAUAAACAGACCUCAGGCCCGAAGCGUGGCGGCACCUGCCGCCGGUGGUAAAAAAGAUCGGAAGAGCACACGUCU: 1.12; GGGUCGGCCAUUCAUAAUCGCGUGGAUAUGGCACGCAAGUUUCUACCGGGCACCGUAAAUGUCCGACUGGAGCCGUUCGGGCGGCUAUAAACAGACCUCAGGCCCGAAGCGUGGCGGCACCUGCCGCCGGUGGUAAAAAAGAUCGGAAGAGCACACGUCU: 1.06; GGGUCGGCCAUGCAUAAUCGCGUGGAUAUGGCACGCAAGUUUCUACCGGGCACCGUAAAUGUCCGACUGGAGCCGUUCGGGCGGCUAUAAACAGACCUCAGGCCCGAAGCGUGGCGGCACCUGCCGCCGGUGGUAAAAAAGAUCGGAAGAGCACACGUCU: 1.25.
Next, GGGUCGGCCAUACAUAAUCGCGUGGAUAUGGCACGCAAGUUUCUACCGGGCACCGUAAAUGUCCGACUGGAGCCGUUCGGGCGGCUAUAAACAGACCUCAGGCCCGAAGCGUGGCGGCACCUGCCGCCGGUGGUAAAAAAGAUCGGAAGAGCACACGUCU: 1.09; GGGUCGGCCUUGCAUAAUCGCGUGGAUAUGGCACGCAAGUUUCUACCGGGCACCGUAAAUGUCCGACUGGAGCCGUUCGGGCGGCUAUAAACAGACCUCAGGCCCGAAGCGUGGCGGCACCUGCCGCCGGUGGUAAAAAAGAUCGGAAGAGCACACGUCU: 1.22.
As to GGGUCGGCCUUUCAUAAUCGCGUGGAUAUGGCACGCAAGUUUCUACCGGGCACCGUAAAUGUCCGACUGGAGCCGUUCGGGCGGCUAUAAACAGACCUCAGGCCCGAAGCGUGGCGGCACCUGCCGCCGGUGGUAAAAAAGAUCGGAAGAGCACACGUCU, the “aptazyme ON/OFF ratio” value is 1.28.
In the case of GGGUCGGCCUUACAUAAUCGCGUGGAUAUGGCACGCAAGUUUCUACCGGGCACCGUAAAUGUCCGACUGGAGCCGUUCGGGCGGCUAUAAACAGACCUCAGGCCCGAAGCGUGGCGGCACCUGCCGCCGGUGGUAAAAAAGAUCGGAAGAGCACACGUCU it was 1.12.
GGGUCGGCCUUAAAUAAUCGCGUGGAUAUGGCACGCAAGUUUCUACCGGGCACCGUAAAUGUCCGACUGGAGCCGUUCGGGCGGCUAUAAACAGACCUCAGGCCCGAAGCGUGGCGGCACCUGCCGCCGGUGGUAAAAAAGAUCGGAAGAGCACACGUCU: the “aptazyme ON/OFF ratio” value came out at 1.15.
Next, GGGUCGGCCUUAGAUAAUCGCGUGGAUAUGGCACGCAAGUUUCUACCGGGCACCGUAAAUGUCCGACUGGAGCCGUUCGGGCGGCUAUAAACAGACCUCAGGCCCGAAGCGUGGCGGCACCUGCCGCCGGUGGUAAAAAAGAUCGGAAGAGCACACGUCU: 1.15; GGGUCGGCCUUAUAUAAUCGCGUGGAUAUGGCACGCAAGUUUCUACCGGGCACCGUAAAUGUCCGACUGGAGCCGUUCGGGCGGCUAUAAACAGACCUCAGGCCCGAAGCGUGGCGGCACCUGCCGCCGGUGGUAAAAAAGAUCGGAAGAGCACACGUCU: 1.16.
Next, GGGUCGGCCAUGGAUAAUCGCGUGGAUAUGGCACGCAAGUUUCUACCGGGCACCGUAAAUGUCCGACUGGAGCCGUUCGGGCGGCUAUAAACAGACCUCAGGCCCGAAGCGUGGCGGCACCUGCCGCCGGUGGUAAAAAAGAUCGGAAGAGCACACGUCU: 1.05; GGGUCGGCCAUGAAUAAUCGCGUGGAUAUGGCACGCAAGUUUCUACCGGGCACCGUAAAUGUCCGACUGGAGCCGUUCGGGCGGCUAUAAACAGACCUCAGGCCCGAAGCGUGGCGGCACCUGCCGCCGGUGGUAAAAAAGAUCGGAAGAGCACACGUCU: 1.06; GGGUCGGCCAUGUAUAAUCGCGUGGAUAUGGCACGCAAGUUUCUACCGGGCACCGUAAAUGUCCGACUGGAGCCGUUCGGGCGGCUAUAAACAGACCUCAGGCCCGAAGCGUGGCGGCACCUGCCGCCGGUGGUAAAAAAGAUCGGAAGAGCACACGUCU: 1.09.
With GGGUCGGCCAUCCAUAAUCGCGUGGAUAUGGCACGCAAGUUUCUACCGGGCACCGUAAAUGUCCGACUGGAGCCGUUCGGGCGGCUAUAAACAGACCUCAGGCCCGAAGCGUGGCGGCACCUGCCGCCGGUGGUAAAAAAGAUCGGAAGAGCACACGUCU, the “aptazyme ON/OFF ratio” value worked out at 2.18.
In the case of GGGUCGGCCAUAGAUAAUCGCGUGGAUAUGGCACGCAAGUUUCUACCGGGCACCGUAAAUGUCCGACUGGAGCCGUUCGGGCGGCUAUAAACAGACCUCAGGCCCGAAGCGUGGCGGCACCUGCCGCCGGUGGUAAAAAAGAUCGGAAGAGCACACGUCU it was 1.08.
As to GGGUCGGCCAUAUAUAAUCGCGUGGAUAUGGCACGCAAGUUUCUACCGGGCACCGUAAAUGUCCGACUGGAGCCGUUCGGGCGGCUAUAAACAGACCUCAGGCCCGAAGCGUGGCGGCACCUGCCGCCGGUGGUAAAAAAGAUCGGAAGAGCACACGUCU, the “aptazyme ON/OFF ratio” value amounted to 1.05.
Next, GGGUCGGCCAUAAAUAAUCGCGUGGAUAUGGCACGCAAGUUUCUACCGGGCACCGUAAAUGUCCGACUGGAGCCGUUCGGGCGGCUAUAAACAGACCUCAGGCCCGAAGCGUGGCGGCACCUGCCGCCGGUGGUAAAAAAGAUCGGAAGAGCACACGUCU: 1.08.
Turning to GGGUCGGCCAAACAUAAUCGCGUGGAUAUGGCACGCAAGUUUCUACCGGGCACCGUAAAUGUCCGACUGGAGCCGUUCGGGCGGCUAUAAACAGACCUCAGGCCCGAAGCGUGGCGGCACCUGCCGCCGGUGGUAAAAAAGAUCGGAAGAGCACACGUCU, the “aptazyme ON/OFF ratio” value was found to be 1.19.
Next, GGGUCGGCCUUCCAUAAUCGCGUGGAUAUGGCACGCAAGUUUCUACCGGGCACCGUAAAUGUCCGACUGGAGCCGUUCGGGCGGCUAUAAACAGACCUCAGGCCCGAAGCGUGGCGGCACCUGCCGCCGGUGGUAAAAAAGAUCGGAAGAGCACACGUCU: 1.35.
In the case of GGGUCGGCCAACCAUAAUCGCGUGGAUAUGGCACGCAAGUUUCUACCGGGCACCGUAAAUGUCCGACUGGAGCCGUUCGGGCGGCUAUAAACAGACCUCAGGCCCGAAGCGUGGCGGCACCUGCCGCCGGUGGUAAAAAAGAUCGGAAGAGCACACGUCU it was 3.4; in that of GGGUCGGCCUUUUAUAAUCGCGUGGAUAUGGCACGCAAGUUUCUACCGGGCACCGUAAAUGUCCGACUGGAGCCGUUCGGGCGGCUAUAAACAGACCUCAGGCCCGAAGCGUGGCGGCACCUGCCGCCGGUGGUAAAAAAGAUCGGAAGAGCACACGUCU, 1.21; in that of GGGUCGGCCUUUGAUAAUCGCGUGGAUAUGGCACGCAAGUUUCUACCGGGCACCGUAAAUGUCCGACUGGAGCCGUUCGGGCGGCUAUAAACAGACCUCAGGCCCGAAGCGUGGCGGCACCUGCCGCCGGUGGUAAAAAAGAUCGGAAGAGCACACGUCU, 1.12.
In the case of GGGUCGGCCUUUAAUAAUCGCGUGGAUAUGGCACGCAAGUUUCUACCGGGCACCGUAAAUGUCCGACUGGAGCCGUUCGGGCGGCUAUAAACAGACCUCAGGCCCGAAGCGUGGCGGCACCUGCCGCCGGUGGUAAAAAAGAUCGGAAGAGCACACGUCU it was 1.1; in that of GGGUCGGCCAUUGAUAAUCGCGUGGAUAUGGCACGCAAGUUUCUACCGGGCACCGUAAAUGUCCGACUGGAGCCGUUCGGGCGGCUAUAAACAGACCUCAGGCCCGAAGCGUGGCGGCACCUGCCGCCGGUGGUAAAAAAGAUCGGAAGAGCACACGUCU, 1.01; in that of GGGUCGGCCAUUUAUAAUCGCGUGGAUAUGGCACGCAAGUUUCUACCGGGCACCGUAAAUGUCCGACUGGAGCCGUUCGGGCGGCUAUAAACAGACCUCAGGCCCGAAGCGUGGCGGCACCUGCCGCCGGUGGUAAAAAAGAUCGGAAGAGCACACGUCU, 1.04.
For GGGUCGGCCAUUAAUAAUCGCGUGGAUAUGGCACGCAAGUUUCUACCGGGCACCGUAAAUGUCCGACUGGAGCCGUUCGGGCGGCUAUAAACAGACCUCAGGCCCGAAGCGUGGCGGCACCUGCCGCCGGUGGUAAAAAAGAUCGGAAGAGCACACGUCU, the “aptazyme ON/OFF ratio” value was found to be 1.03.
